PMC8383118

B1: paratox (Prx) from S. pyogenes MGAS315 (natural protein)
chain: MLTYDEFKQAIDRGYITADTVMIVRKNGQIFDYVLPNEKIKNGEIVTDEKVEEVLVELSR

How the values were obtained:
[1] = biological target: fluorescently labeled S. mutans XIP (dansyl-GLDWWSL) (Streptococcus mutans); test: other fluorescence titration; 0.2 μM dansyl-XIP with increasing ComR, 1 h, room temperature, dark; 20 mM HEPES pH 7.5, 100 mM NaCl, 1 mM β-ME; dansyl emission intensity
[2] = biological target: ComR:dansyl-XIP complex (Streptococcus mutans); test: fluorescence polarisation; steady-state fluorescence anisotropy of 0.2 μM dansyl-XIP with 0.5 μM ComR and increasing Prx, 1 h, room temperature; 20 mM HEPES pH 7.5, 100 mM NaCl, 1 mM β-ME
[3] = biological target: ComR S. mutans, full length (Streptococcus mutans)
[4] = biological target: ComR S. mutans, full length (Streptococcus mutans); test: ITC; 300 μM Prx (or PrxD32A) injected into 20 μM ComR S. mutans or DBD, 25 °C, gel filtration buffer (20 mM Tris-HCl pH 7.5, 100 mM NaCl, 1 mM β-ME); one site model
[5] = biological target: ComR S. mutans DNA-binding domain (DBD) construct (Streptococcus mutans); test: as above

| Molecule | Kd [1] | Kd [2] | EMSA: Prx needed for complete inhibition (no DNA band shift) of 4 μM ComR with 8 μM XIP and FAM-labeled comS promoter probe; Prx added with or before XIP (apo-ComR) [3] | EMSA: Prx needed for complete inhibition (no DNA band shift) when added after the ComR:XIP:DNA complex was allowed to form (activated ComR) [3] | Kd [4] | dH [4] | stoichiometry N [4] | Kd [5] | dH [5] | stoichiometry N [5] |
| --- | --- | --- | --- | --- | --- | --- | --- | --- | --- | --- |
| ComR S. mutans, full length (receptor) | 320 nM |  |  |  |  |  |  |  |  |  |
| B1 |  | 700 nM | 6 µM | 2 µM | 390 nM | -11.8 kcal/mol | 1 | 50 nM | -20.8 kcal/mol | 1 |
